Results taken from patent US20030044768A1 (Dana-Farber, published 2003).
Values belong to the molecule of their own block, whether it stands above or below them.

B7: B7-1 expressed on transfected COS cells (ligand)
chain: VIHVTKEVKEVATLSCGHNVSVEELAQTRIYWQKEKKMVLTMMSGDMNIWPEYKNRTIFDITNNLSIVILALRPSDEGTYECVVLKYEKDAFKREHLAEVTLSVKADFPTPSISDFEIPTSNIRRIICSTSGGFPEPHLSWLENGEELNAINTTVSQDPETELYAVSSKLDFNMTTNHSFMCLIKYGHLRVNQTFNWNTTKQEHFPDNLLPSWAITLISVNGIFVICCLTYCFAPRCRERRRNERLRRESVRPV
notes: whole, on cells; also called CD80

Columns and labels:
[1] = molecular target: PD-1 on T cells (species not stated); test: cell-based or functional assay
[2] = molecular target: T1, human PD-1-Fc (human Ig gamma 1) (human, UniProt P01857 99-330 = IgG part); test: in situ staining of transfected COS cell monolayers
T1 construct: domain: hinge-CH2-CH3; also called human PD-1 linked to IgG1
T1 sequence (P01857 other isoform, or with tags, fused parts or gaps limits assumed): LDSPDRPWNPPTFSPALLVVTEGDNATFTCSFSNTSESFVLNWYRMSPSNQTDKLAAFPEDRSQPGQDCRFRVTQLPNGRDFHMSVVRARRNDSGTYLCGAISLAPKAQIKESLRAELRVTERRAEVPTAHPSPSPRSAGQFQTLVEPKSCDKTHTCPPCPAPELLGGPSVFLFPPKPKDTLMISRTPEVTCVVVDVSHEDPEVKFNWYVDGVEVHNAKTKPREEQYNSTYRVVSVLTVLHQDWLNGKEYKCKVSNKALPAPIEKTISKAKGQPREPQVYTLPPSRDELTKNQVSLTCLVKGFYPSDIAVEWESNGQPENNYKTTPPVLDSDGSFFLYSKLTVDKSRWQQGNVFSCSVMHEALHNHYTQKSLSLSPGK
Procedure: In addition, an in situ assay of transfected COS cell monolayers was performed. […] Binding was visualized with chromogenic substrates 5-bromo-4-chloro-3-indolyl phosphate and nitro blue tetrazolium and light microscopy.

[3] = molecular target: T1, human PD-1-Fc (human Ig gamma 1); test: BIACORE, PD-1-Fc immobilized
[4] = molecular target: T2, human PD-1 fused to murine Ig gamma2a (human; murine, UniProt P01863 98-330 = IgG part, limits assumed); test: flow cytometry on CHO-IA^d cells, hPD-1-Ig developed with goat anti-murine IgG2a-PE
T2 construct: domain: hinge-CH2-CH3; The Fc mutations are not specified; also called human PD-1 gamma 2a fusion protein; hPD-1-Ig
T2 sequence (P01863 other isoform, or with tags, fused parts or gaps limits assumed): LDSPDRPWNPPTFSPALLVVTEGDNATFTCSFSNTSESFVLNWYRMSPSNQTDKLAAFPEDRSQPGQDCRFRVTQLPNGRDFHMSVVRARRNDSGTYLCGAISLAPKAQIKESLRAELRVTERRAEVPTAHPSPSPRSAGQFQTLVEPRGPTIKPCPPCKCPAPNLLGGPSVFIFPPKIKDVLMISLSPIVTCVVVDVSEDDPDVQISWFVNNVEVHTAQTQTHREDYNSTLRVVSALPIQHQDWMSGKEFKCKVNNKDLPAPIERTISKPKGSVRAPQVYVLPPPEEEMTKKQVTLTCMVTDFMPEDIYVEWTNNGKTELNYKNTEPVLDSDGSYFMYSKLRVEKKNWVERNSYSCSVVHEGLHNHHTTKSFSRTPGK
Procedure: In addition, cells were stained separately with 5 μg/ml anti-IA^d-PE or B7.2-PE (Pharmingen, San Diego, Calif.). Following each step, cells were washed three times with PBS/1% BSA/0.02% sodium azide. After the final incubation, cells were fixed with 1% paraformaldehyde. Ten thousand events were analyzed on a FACSCalibar (Becton Dickinson, Mountain View, Calif.). All isotype controls were obtained from Pharmingen.

[5] = molecular target: T3, human B7-4M expressed on transfected COS or CHO cells (human, UniProt Q9NZQ7 19-290); test: flow cytometry on B7-4M-transfected COS cells
T3 construct: Full-length B7-4M cDNA expressed on COS or CHO cells; also called PD-L1
T3 sequence (Q9NZQ7 19-290): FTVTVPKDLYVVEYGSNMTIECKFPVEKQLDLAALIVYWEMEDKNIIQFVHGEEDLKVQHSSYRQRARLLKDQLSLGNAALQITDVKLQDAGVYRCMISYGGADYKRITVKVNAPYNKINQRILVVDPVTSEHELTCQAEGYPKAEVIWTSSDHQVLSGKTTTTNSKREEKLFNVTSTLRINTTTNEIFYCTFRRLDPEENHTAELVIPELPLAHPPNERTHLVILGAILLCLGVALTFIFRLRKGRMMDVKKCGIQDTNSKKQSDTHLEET

[6] = molecular target: B7; test: flow cytometry (FITC) on B7-1-transfected COS cells
[7] = molecular target: T4, murine B7-4 expressed on transfected cells (murine, UniProt Q9EP73 19-290); test: flow cytometry on CHO cells expressing murine B7-4
T4 construct: also called mouse B7-4; mB7-4
T4 sequence (Q9EP73 19-290 limits assumed): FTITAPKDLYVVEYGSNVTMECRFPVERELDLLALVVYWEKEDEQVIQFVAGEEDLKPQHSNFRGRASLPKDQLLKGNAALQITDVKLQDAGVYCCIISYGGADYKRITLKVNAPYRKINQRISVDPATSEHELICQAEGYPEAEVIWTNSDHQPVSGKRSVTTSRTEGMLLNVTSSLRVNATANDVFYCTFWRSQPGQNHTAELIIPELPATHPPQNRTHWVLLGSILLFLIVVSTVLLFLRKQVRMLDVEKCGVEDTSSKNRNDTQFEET

[8] = molecular target: T3, human B7-4M expressed on transfected …; test: flow cytometry on CHO cells expressing human B7-4
[9] = molecular target: T1, human PD-1-Fc (human Ig gamma 1); test: flow cytometry on B7-1-transfected COS cells, anti-IgG-PE
Procedure: COS cells were transfected with either B7-4M or B7-1 using LipofectAMINE transfection reagent. […] The cells were then analyzed by flow cytometry.

Molecule: B7-4.Fc / PDL1.Ig fusion protein (species not stated) (Fc fusion)
% CD69+ T cells at 24 hours, anti-CD3/B7-4.Fc (anti-CD3 alone 26%) [1]: 26%
% CD69+ T cells at 48 hours, anti-CD3/B7-4.Fc (anti-CD3 alone 46%) [1]: 36%
% CD69+ T cells at 72 hours, anti-CD3/B7-4.Fc (anti-CD3 alone 63%) [1]: 42%
% IL-2R+ (CD25) T cells at 24 hours, anti-CD3/B7-4.Fc (anti-CD3 alone 17%) [1]: 12%
% IL-2R+ (CD25) T cells at 48 hours, anti-CD3/B7-4.Fc (anti-CD3 alone 29%) [1]: 17%
% IL-2R+ (CD25) T cells at 72 hours, anti-CD3/B7-4.Fc (anti-CD3 alone 54%) [1]: 15%
% apoptotic T cells (propidium iodide and annexin positive) at 24 hours, anti-CD3/B7-4.Fc (anti-CD3 alone 3%) [1]: 3%
% apoptotic T cells at 48 hours, anti-CD3/B7-4.Fc (anti-CD3 alone 5%) [1]: 4%
% apoptotic T cells at 72 hours, anti-CD3/B7-4.Fc (anti-CD3 alone 10%) [1]: 12%

B6: murine PD-1-Fc (Fc fusion, UniProt Q02242 25-167, looked up)
chain: LEVPNGPWRSLTFYPAWLTVSEGANATFTCSLSNWSEDLMLNWNRLSPSNQTEKQAAFCNGLSQPVQDARFQIIQLPNRHDFHMNILDTRRNDSGIYLCGAISLHPKAKIEESPGAELVVTERILETSTRYPSPSPKPEGRFQ
notes: also called murine PD-1.Ig; mouse PD-1; not shown: Fc portion
binding result [7]: binds
binding result [8]: binds

Molecule: B7
binding result [9]: no binding

Second part, the molecule after the results:

binding result [2]: no binding
B1: B7-2 expressed on transfected COS cells (ligand)
chain: APLKIQAYFNETADLPCQFANSQNQSLSELVVFWQDQENLVLNEVYLGKEKFDSVHSKYMGRTSFDSDSWTLRLHNLQIKDKGLYQCIIHHKKPTGMIRIHQMNSELSVLANFSQPEIVPISNITENVYINLTCSSIHGYPEPKKMSVLLRTKNSTIEYDGVMQKSQDNVTELYDVSISLSVSFPDVTSNMTIFCILETDKTRLLSSPFSIELEDPQPPPDHIPWITAVLPTVIICVMVFCLILWKWKKKKRPRNSYKCGTNTMEREESEQTKKREKIHIPERSDEAQRVFKSSKTSSCDKSDTCF
notes: whole, on cells; also called CD86

binding result [3]: no binding
B2: soluble form of human B7-1 (ligand)
chain: VIHVTKEVKEVATLSCGHNVSVEELAQTRIYWQKEKKMVLTMMSGDMNIWPEYKNRTIFDITNNLSIVILALRPSDEGTYECVVLKYEKDAFKREHLAEVTLSVKADFPTPSISDFEIPTSNIRRIICSTSGGFPEPHLSWLENGEELNAINTTVSQDPETELYAVSSKLDFNMTTNHSFMCLIKYGHLRVNQTFNWNTTKQEHFPDN
notes: also called soluble B7-1

binding result [3]: no binding
B3: soluble form of human B7-2 (ligand)
chain: APLKIQAYFNETADLPCQFANSQNQSLSELVVFWQDQENLVLNEVYLGKEKFDSVHSKYMGRTSFDSDSWTLRLHNLQIKDKGLYQCIIHHKKPTGMIRIHQMNSELSVLANFSQPEIVPISNITENVYINLTCSSIHGYPEPKKMSVLLRTKNSTIEYDGVMQKSQDNVTELYDVSISLSVSFPDVTSNMTIFCILETDKTRLLSSPFSIELEDPQPPPDHIP
notes: also called soluble B7-2

binding result [4]: no binding (tested: 5 ug/ml)
B4: IA^d expressed on CHO transfectants (CHO-IA^d) (other)
alpha: EDDIEADHVGFYGTTVYQSPGDIGQYTHEFDGDELFYVDLDKKKTVWRLPEFGQLILFEPQGGLQNIAAEKHNLGILTKRSNFTPATNEAPQATVFPKSPVLLGQPNTLICFVDNIFPPVINITWLRNSKSVTDGVYETSFLVNRDHSFHKLSYLTFIPSDDDIYDCKVEHWGLEEPVLKHWEPEIPAPMSELTETVVCALGLSVGLVGIVVGTIFIIQGLRSGGTSRHPGPL
beta: GNSERHFVVQFKGECYYTNGTQRIRLVTRYIYNREEYVRYDSDVGEYRAVTELGRPDAEYWNSQPEILERTRAEVDTACRHNYEGPETSTSLRRLEQPNVAISLSRTEALNHHNTLVCSVTDFYPAKIKVRWFRNGQEETVGVSSTQLIRNGDWTFQVLVMLEMTPHQGEVYTCHVEHPSLKSPITVEWRAQSESARSKMLSGIGGCVLGVIFLGLGLFIRHRSQKGPRGPPPAGLLQ
notes: present on CHO-IA^d, CHO-IA^d/B7.2 and CHO-IA^d/B7.2/B7-4; copies: 1 + 1

binding result [5]: no binding
binding result [6]: no binding
B5: murine ICOS-his fusion protein (receptor, UniProt Q9WVS0 21-144, looked up)
chain: EINGSADHRMFSFHNGGVQISCKYPETVQQLKMRLFREREVLCELTKTKGSGNAVSIKNPMLCLYHLSNNSVSFFLNNPDSSQGSYYFCSLSIFDPPPFQERNLSGGYLHIYESQLCCQLKLWL
notes: not shown: his tag
